± gives the standard deviation.
Experiment: protein stability index of a GFP-peptide fusion (GPS, HEK-293T) (PSI 1-6); higher = more stable
Settings: c terminus: a fixed tail appended
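Also: 24-mer peptide tiles fused after GFP, lentivirally expressed, FACS-sorted into six equal bins by GFP/DsRed ratio, decoded by Illumina sequencing, PSI is the read-weighted mean bin number.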

Sequence | protein stability index (treatment: DMSO) | protein stability index (treatment: MLN4924 1 uM, 8 h)
QDCGFEHLVPVIEMWADQLTSLKD [CEP70] | 2.76 ± 0.39 | 2.94 ± 0.53
ANYVIVRAYQYTTLTSVQLLDCFG [SLC35F2] | 3.21 ± 0.26 | 3.03 ± 0.49
NTTLTQYQLLATHVPTVWAIDQYR [RHOBTB1] | 2.75 ± 0.56 | 2.41 ± 0.43
RNLGSINTELQDVQRIMVANIEEV [SEC22B] | 4.1 ± 0.15 | 4.05 ± 0.044
SYLREQMLNEPLVREIVKECSNIP [GAN] | 3.21 ± 0.19 | 3.39 ± 0.45
LKKYLEPRCPRMVLSLKEGAREED [FBXO3] | 4.56 ± 0.34 | 4.19 ± 0.41
MPAATVDHSQRICEVWACNLDEEM [CNOT7] | 4.65 ± 0.41 | 4.77 ± 0.28
RRTRGPVERAAAAAAAAAGGDAGH [C6orf223] | 4.91 ± 0.31 | 5.07 ± 0.17
ESETRKAAKRMRLEIYQSSQDEPI [NOL4L] | 4.58 ± 0.071 | 4.65 ± 0.24
ADACDIDEIEEVPTTSHRLSRHDK [NETO1] | 5.59 ± 0.17 | 5.45 ± 0.17
GPPSRGGHMDDGGYSMNFNMSSSR [RBMX] | 4.25 ± 0.32 | 3.96 ± 0.34
DVYSFAIVIWGVLTQKKPFADEKN [RIPK4] | 2.61 ± 0.77 | 1.86 ± 0.072
QLYCEKVQGLMKEYLLSFPAGKTP [VPS39] | 2.27 ± 0.16 | 2.41 ± 0.16
KCVVHIHTPAGAAVSAMKCGLLPI [ADD1] | 2.69 ± 0.52 | 2.17 ± 0.56
FRFTYYTILDIFRFALRFIRPDPR [FAF2] | 2.56 ± 0.067 | 2.47 ± 0.33
MAMTAGTTTTFPMSNHTRERVTVA [STK38L] | 3.2 ± 0.36 | 3.28 ± 0.36
IHGTLHLERLAYLHARLRELLCEL [PRAME] | 2.04 ± 0.3 | 2.06 ± 0.31
PSTLGRCKAFSTCVSHLIIVTVHY [OR10K2] | 3.07 ± 0.41 | 2.89 ± 0.5
SQAIDLLYWRDIKQTGIVFGSFLL [RTN1] | 3.03 ± 0.81 | 3.01 ± 0.47
PAPPPPAGGATAWGDLLGEDSLAA [SNAP91] | 5.13 ± 0.22 | 5.11 ± 0.13
ALDNESWGFVHPRLLSVPELCHHV [RETREG3] | 2.65 ± 0.42 | 2.46 ± 0.23
TNEWEKRLSTSPVRLAARQEDAPM [EPB41L3] | 4.83 ± 0.16 | 4.51 ± 0.44
LSPSRGVAQCLRDLVAMQWADAAG [ZSWIM9] | 2.7 ± 0.17 | 2.77 ± 0.28

Sequence | protein stability index (treatment: DMSO) | protein stability index (treatment: MLN4924 1 uM, 8 h)
AVQDHGQPPLSATVTLTVAVADSI [PCDHGA10] | 2.83 ± 0.22 | 2.98 ± 0.34
KIKKSPLTICYPEYAGSNTYEEAA [GNAI1] | 3.34 ± 0.26 | 3.91 ± 0.28
LELQRQREARKRALARKQAQEQLR [RSPH3] | 3.95 ± 0.31 | 4.06 ± 0.49
RLLKTLETSRSHDLEAVVPQNGSE [ATP23] | 4 ± 0.23 | 4.09 ± 0.19
NEVRRGSPVLLGWVEQAYADKCVC [TIAF1] | 2.64 ± 0.087 | 2.88 ± 0.27
RGAQGVILVYDIANRWSFEGMDRW [RAB40A] | 2.57 ± 0.37 | 2.28 ± 0.28
QTRRASALIDRPAPYFERSSSKRY [EPB41L3] | 4.18 ± 0.24 | 4.17 ± 0.3
EAEAADSGAVGARRFLLCLYLVGF [MFSD9] | 2.79 ± 0.91 | 2.65 ± 0.71
TFFPVALKKHGPICQKTATKKRKT [ZC2HC1A] | 3.24 ± 0.3 | 3.32 ± 0.3
NESALVKEKELSIELANIRDEVAF [MTUS2] | 4.42 ± 0.28 | 4.33 ± 0.46
HRKAVHLRTRGRTRGWVQTLARMS [C6orf223] | 2.57 ± 0.34 | 2.49 ± 0.17
RKDKDVARLQDFQELELVLMISEN [ANKRD40] | 2.1 ± 0.47 | 2.13 ± 0.56
FLSLHRAHLGEEAHKCLECGKCFS [ZNF263] | 3.06 ± 0.28 | 3.44 ± 0.37
LILASELSRLSVNSVTAGDYSRPL [TSN] | 2.45 ± 0.33 | 2.37 ± 0.19
RGNVVLRAQMIRNEYRKLHPVLHK [TRIM43] | 2.25 ± 0.38 | 2.77 ± 0.56
DLEAKEVTPRTALLTWTEPPVRPA [TNXB] | 4.61 ± 0.14 | 4.53 ± 0.23
EAQAFRALVQEKIQKRNQRQSGDR [WAS] | 4.5 ± 0.12 | 4.5 ± 0.13
VKVLAGQEYAAKIINTKKLSARDH [CAMK2A] | 3.15 ± 0.34 | 3.33 ± 0.11
MQGNQILVFPSSSSSSSSQAPGQP [ZBTB22] | 4.28 ± 0.24 | 4.22 ± 0.22
PFTVSPNTHVSQVFNLFRTMGLRH [CLCN6] | 2.39 ± 0.45 | 2.45 ± 0.38
GVIVANMTEWKHQRITKQLEKWMQ [GLT8D2] | 2.18 ± 0.085 | 2.4 ± 0.18
LQKKVEQLSRELSTLRNLFKQLPE [CEBPB] | 2.3 ± 0.32 | 2.43 ± 0.41

From the supplement of paper PMC10567573
